Test results: patent publication US20220204621A1 (UCL BUSINESS, published 2022)

B1: ROR1xCD3 BiTE (membrane proximal binding ROR1-BiTE specific for the Frizzled domain) (bispecific antibody, part only; not given: OKT3 scFv and linkers, part only)
chain, part: HHHHHHEVQLVESGGGLVQPGRSLKLSCAASGFIFSEHNMAWVRQAPKKGLEWVATISDDGRNTYYRDSMRGRFTISRENARSTLYLQLDSLRSEDTATYYCASHRYNLFDSWGQGVMVTVSSDIQMTQSPSFLSASVGDRVTINCKASQNIDRYLNWYQQKLGEAPKRLLYNTNKLQTGIPSRFSGSGSATDFTLTISSLQPEDFATYFCLQYNSLPLTFGSGTKLEIK
B2: Clone F antibody (antibody, V domains shown)
VH: EVQLVESGGGLVQPGRSLKLSCAASGFIFSEHNMAWVRQAPKKGLEWVATISDDGRNTYYRDSMRGRFTISRENARSTLYLQLDSLRSEDTATYYCASHRYNLFDSWGQGVMVTVSS
VL: DIQMTQSPSFLSASVGDRVTINCKASQNIDRYLNWYQQKLGEAPKRLLYNTNKLQTGIPSRFSGSGSATDFTLTISSLQPEDFATYFCLQYNSLPLTFGSGTKLEIK
notes: Rat anti-ROR1 antibody from a hybridoma library

Experiments:
[1] = target: human Receptor Tyrosine Kinase Like Orphan Receptor 1 (ROR1), full length (human) (UniProt Q01973); test: cell-based or functional assay
[2] = target: human ROR1 with the combination of Q(261)H and I(254)V (human, UniProt Q01973 30-937, limits assumed); test: antibody binding to mutated human ROR1 constructs
human ROR1 with the combination of Q(261)H and I(254)V, sequence (Q01973 30-937 I254V/Q261H limits assumed): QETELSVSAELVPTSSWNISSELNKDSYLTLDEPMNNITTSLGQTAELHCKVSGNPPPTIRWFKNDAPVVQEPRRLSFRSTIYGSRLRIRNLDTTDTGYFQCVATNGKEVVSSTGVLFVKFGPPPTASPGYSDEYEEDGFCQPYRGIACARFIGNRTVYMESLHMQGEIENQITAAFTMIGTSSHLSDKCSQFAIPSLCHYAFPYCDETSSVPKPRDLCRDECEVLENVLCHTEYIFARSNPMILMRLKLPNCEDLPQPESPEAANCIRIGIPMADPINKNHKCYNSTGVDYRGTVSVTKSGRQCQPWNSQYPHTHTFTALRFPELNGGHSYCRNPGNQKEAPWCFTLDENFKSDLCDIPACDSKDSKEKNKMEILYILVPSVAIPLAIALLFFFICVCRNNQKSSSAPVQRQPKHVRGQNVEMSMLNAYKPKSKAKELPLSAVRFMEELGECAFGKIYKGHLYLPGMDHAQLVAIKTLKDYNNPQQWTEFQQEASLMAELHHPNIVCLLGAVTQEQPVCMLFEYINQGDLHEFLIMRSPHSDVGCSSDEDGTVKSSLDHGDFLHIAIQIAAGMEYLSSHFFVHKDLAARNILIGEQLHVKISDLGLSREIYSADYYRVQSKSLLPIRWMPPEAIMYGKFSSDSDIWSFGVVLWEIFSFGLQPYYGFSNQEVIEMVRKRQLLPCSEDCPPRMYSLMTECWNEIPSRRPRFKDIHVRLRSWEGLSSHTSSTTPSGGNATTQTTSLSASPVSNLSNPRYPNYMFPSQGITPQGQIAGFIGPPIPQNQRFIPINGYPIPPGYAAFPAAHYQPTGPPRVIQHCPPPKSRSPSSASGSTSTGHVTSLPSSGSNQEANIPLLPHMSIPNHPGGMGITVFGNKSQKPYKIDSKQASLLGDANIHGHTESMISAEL

human Receptor Tyrosine Kinase Like Orphan Receptor 1 (ROR1), full length (human), sequence (Q01973 30-937): as the sequence (Q01973 30-937 I254V/Q261H limits assumed) above, with V225I, H232Q counted along it

| Binder | cytotoxicity against neuroblastoma cell lines; lowest concentration named (micrograms/ml) [1] | dose dependent cytotoxicity across ROR1 positive pancreatic cell lines (PANC-1, SUIT-2, CFPAC1, HPAF-II, MiaPaCa2, PSN-1); lowest concentration with significant activity [1] | binding result [2] |
| --- | --- | --- | --- |
| B1 | 0.01 | 0.1 ng/mL |  |
| B2 |  |  | no binding |
